Experimental findings from patent publication US11491212 are described below.

The series addresses Factor X (FX), P00742.

Sequence of Factor X (FX), P00742 (P00742 whole entry, looked up): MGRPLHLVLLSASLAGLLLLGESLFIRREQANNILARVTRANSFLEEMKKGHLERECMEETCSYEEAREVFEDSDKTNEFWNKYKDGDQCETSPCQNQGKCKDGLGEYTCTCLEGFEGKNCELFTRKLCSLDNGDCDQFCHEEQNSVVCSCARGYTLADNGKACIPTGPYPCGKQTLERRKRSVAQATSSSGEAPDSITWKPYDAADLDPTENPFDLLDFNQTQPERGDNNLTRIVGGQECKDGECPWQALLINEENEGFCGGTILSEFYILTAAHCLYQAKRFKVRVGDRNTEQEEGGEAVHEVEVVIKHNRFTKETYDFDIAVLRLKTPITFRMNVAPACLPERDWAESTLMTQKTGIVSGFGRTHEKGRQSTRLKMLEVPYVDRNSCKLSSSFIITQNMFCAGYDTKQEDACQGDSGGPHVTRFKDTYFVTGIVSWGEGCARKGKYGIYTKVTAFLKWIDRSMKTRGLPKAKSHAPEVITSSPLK

B1: FIXa Y259F/K265T/Y345T (protein)
chain 1: not shown
chain 2: not shown
On to B1, for which the Michaelis-Menten constant (KM) (as a rule, the concentration of substrate that gives half-maximal velocity) turned out to be 0.0309 µM and the kcat (Catalytic activity of FIXa variants) worked out at 1.7 s⁻¹.

B2: FIXa K247N/N249S/R318Y/R338E/R403E/E410N (protein)
chain 1: not shown
chain 2: not shown
Regarding B2, the KM was determined as 0.0392 µM and the kcat (Catalytic activity of FIXa variants) came out at 5.8 s⁻¹.

B3: FIXa Y155F/K228N/R318Y/R338E/R403E/E410N (protein)
chain 1: not shown
chain 2: not shown
On to B3, for which the KM came to 0.048 µM; the kcat (Catalytic activity of FIXa variants) turned out to be 9.7 s⁻¹; the kcat/KM – broadly, the turnover number divided by the Michaelis constant – was 2e+08 M⁻¹ s⁻¹.

B4: FIXa D104N/K106S/K247N/N249S/R318Y/R338E/R403E/E410N (protein)
chain 1: not shown
chain 2: not shown
On to B4, for which the Michaelis constant (KM) came out at 0.059 µM and the kcat (Catalytic activity of FIXa variants) was determined as 5.2 s⁻¹.

B5: FIXa I251S/R318Y/R338E/R403E/E410N (protein)
chain 1: not shown
chain 2: not shown
On to B5, for which the KM amounted to 0.0334 µM and the kcat (Catalytic activity of FIXa variants) came out at 4.8 s⁻¹.

B6: FIXa R318Y/R338E/R403E/E410S (protein)
chain 1: not shown
chain 2: not shown
As for B6, the KM worked out at 0.0351 µM, the kcat (Catalytic activity of FIXa variants) came to 5.8 s⁻¹ and the kcat/KM is 1.8e+08 M⁻¹ s⁻¹.

B7: FIXa D85N/K228N/R318Y/R338E/R403E/E410N (protein)
chain 1: not shown
chain 2: not shown
B7: the KM is 0.0393 µM and the kcat (Catalytic activity of FIXa variants) was determined as 6 s⁻¹.

B8: FIXa A103N/N105S/K247N/N249S/R318Y/R338E/R403E/E410N (protein)
chain 1: not shown
chain 2: not shown
As for B8, the KM was 0.0397 µM, the kcat (Catalytic activity of FIXa variants) is 4.1 s⁻¹ and the specificity constant (kcat/KM) worked out at 1e+08 M⁻¹ s⁻¹.

B9: FIXa K247N/N249S/R318Y/R338E/E410N (protein)
chain 1: not shown
chain 2: not shown
Consider B9, for which the KM was found to be 0.0166 µM and the kcat (Catalytic activity of FIXa variants) was found to be 3.8 s⁻¹.

B10: FIXa Y155F/I251S/R318Y/R338E/R403E/E410N (protein)
chain 1: not shown
chain 2: not shown
As for B10, the Michaelis constant (KM) worked out at 0.0433 µM and the kcat (Catalytic activity of FIXa variants) is 7.2 s⁻¹.

B11: FIXa Y155F/K247N/N249S/R318Y/R338E/E410N (protein)
chain 1: not shown
chain 2: not shown
With B11, the KM is 0.0153 µM, the kcat (Catalytic activity of FIXa variants) was found to be 4.3 s⁻¹ and the catalytic efficiency (kcat/KM) amounted to 3e+08 M⁻¹ s⁻¹.

B12: FIXa Y155F/K247N/N249S/R318Y/R338E/R403E/E410N (protein)
chain 1: not shown
chain 2: not shown
As to B12, the KM stood at 0.0391 µM, the kcat (Catalytic activity of FIXa variants) came to 6.5 s⁻¹ and the catalytic efficiency (kcat/KM) worked out at 1.8e+08 M⁻¹ s⁻¹.

B13: FIXa I251S/R318Y/R338E/E410N (protein)
chain 1: not shown
chain 2: not shown
B13: the KM stood at 0.0162 µM, the kcat (Catalytic activity of FIXa variants) amounted to 6.2 s⁻¹ and the kcat/KM was found to be 3.8e+08 M⁻¹ s⁻¹.
